Laboratory results reported in patent publication US20210206825A1 (published 2021).
Substitutions are numbered along the chain they refer to. Values belong to the binder of their own block, whether it stands above or below them.

Key:
[1] = biological target: T1, human EGFR on cells (human, UniProt P00533 25-1210); assay: cell-based or functional assay
[2] = biological target: T1, human EGFR on cells; assay: cell-based or functional assay; remark: listed apart in the source
[3] = biological target: human c-Met on cells (human, UniProt P08581 25-1390); assay: cell-based or functional assay
[4] = biological target: T2, recombinant human c-Met Fc chimera (human, UniProt P08581 16-932); assay: SPR
T2 construct: also called c-Met-Fc fusion protein; c-Met extracellular domain; not shown: Fc
Text: Serine was chosen to decrease the hydrophobicity of the resulting mutants. […] Fold change indicates fold change of the KD value of a variant when compared to the parent P114AR7P95-A3.

- Phospho-EGFR IC50 (A431 cells, Tyr1173) [1]: 179 nM
B1: P54CR4-31 (designed binder, not shown: small tags and cut ends)
chain: LPAPKNLVVSEVTEDSLRLSWTAPDAAFDSFLIQYQESEKVGEAINLTVPGSERSYDLTGLKPGTEYTVSIYGVLGSYVFEHDVMLPLSAEFTT

- pEGFR inhibition in H292 cells (IC50) [2]: 13.6 nM
B2: ECB95 (designed binder, not shown: small tags and cut ends)
chain: MLPAPKNLVVSEVTEDSARLSWDDPWAFYESFLIQYQESEKVGEAIVLTVPGSERSYDLTGLKPGTEYTVSIYGVHNVYKDTNIRGLPLSAIFTTAPAPAPAPAPLPAPKNLVVSRVTEDSARLSWTAPDAAFDSFWIRYFEFVGSGEAIVLTVPGSERSYDLTGLKPGTEYVVNILGVKGGSISPPLSAIFTT

- pEGFR inhibition in H292 cells (IC50) [2]: 432 nM
B3: ECB109 (designed binder, not shown: small tags and cut ends)
chain: B2 chain with W26H, V144L, G178S

- pEGFR inhibition in H292 cells (IC50) [2]: 814 nM
B4: ECB108 (designed binder, not shown: small tags and cut ends)
chain: B2 chain with W26H, G145S, S146K, E148D

- pEGFR inhibition in H292 cells (IC50) [2]: 367 nM
B5: ECB106 (designed binder, not shown: small tags and cut ends)
chain: B2 chain with W26H, V144L, S183K

- pEGFR inhibition in H292 cells (IC50) [2]: 4.2 nM
B6: ECB15 (designed binder, not shown: small tags and cut ends)
chain: B2 chain with I84M, V144L, L177M, S183K

- pEGFR inhibition in H292 cells (IC50) [2]: 16.6 nM
B7: ECB97 (designed binder, not shown: small tags and cut ends)
chain: B2 chain with V144L, G178S

- pEGFR inhibition in H292 cells (IC50) [2]: 5.1 nM
B8: ECB94 (designed binder, not shown: small tags and cut ends)
chain: B2 chain with V144L, S183K

- pEGFR inhibition in H292 cells (IC50) [2]: 812 nM
B9: ECB107 (designed binder, not shown: small tags and cut ends)
chain: B2 chain with W26H

- pEGFR inhibition in H292 cells (IC50) [2]: 24.7 nM
B10: ECB96 (designed binder, not shown: small tags and cut ends)
chain: B2 chain with G145S, S146K, E148D

- inhibition of c-Met phosphorylation in NCI-H292 cells (IC50) [3]: 610 nM
B11: P114AR5P74-A5 (designed binder, not shown: small tags and cut ends)
chain: LPAPKNLVVSRVTEDSARLSWTAPDAAFDSFWIRYDEVVVGGEAIVLTVPGSERSYDLTGLKPGTEYYVNILGVKGGSISVPLSAIFTT

- Phospho-EGFR IC50 (A431 cells, Tyr1173) [1]: > 2500 nM
B12: P53A1R5-17 (designed binder, not shown: small tags and cut ends)
chain: LPAPKNLVVSEVTEDSLRLSWADPHGFYDSFLIQYQESEKVGEAINLTVPGSERSYDLTGLKPGTEYTVSIYGVHNVYKDTNMRGLPLSAEFTT

- Phospho-EGFR IC50 (A431 cells, Tyr1173) [1]: 18 nM
B13: P54AR4-83 (designed binder, not shown: small tags and cut ends)
chain: B12 chain with A22D, H25W, G26A, D29E

- Phospho-EGFR IC50 (A431 cells, Tyr1173) [1]: 184 nM
B14: P54AR4-17 (designed binder, not shown: small tags and cut ends)
chain: B12 chain with A22T, D23Y, P24D, H25R, G26D, F27G

- Phospho-EGFR IC50 (A431 cells, Tyr1173) [1]: 170 nM
B15: P54AR4-48 (designed binder, not shown: small tags and cut ends)
chain: B12 chain with A22D, H25R, D29E

- Phospho-EGFR IC50 (A431 cells, Tyr1173) [1]: 141 nM
B16: P54AR4-73 (designed binder, not shown: small tags and cut ends)
chain: B12 chain with A22T, D23W, H25Y, G26A, F27D, Y28L

- Kd [4]: 0.4 nM
B17: ECB15 (SEQ ID NO: 145) (designed binder)
chain: LPAPKNLVVSEVTEDSARLSWDDPWAFYESFLIQYQESEKVGEAIVLTVPGSERSYDLTGLKPGTEYTVSIYGVHNVYKDTNMRGLPLSAIFTTAPAPAPAPAPLPAPKNLVVSRVTEDSARLSWTAPDAAFDSFWIRYFEFLGSGEAIVLTVPGSERSYDLTGLKPGTEYVVNIMGVKGGKISPPLSAIFTT
notes: kept as two constructs; also called ECB15 without Met; not shown: C-terminal poly-histidine tag

- Fold Change of KD vs parent [4]: 68 fold
- Kd [4]: 27.2 nM
- koff [4]: 0.00512 s⁻¹
- kon [4]: 188000 M⁻¹ s⁻¹
B18: A3 F36S (designed binder)
chain: B17 chain with F140S
notes: In the context of ECB15; built as m66; not shown: C-terminal poly-histidine tag

- binding result [4]: no binding
B19: A3 I79S (designed binder)
chain: B17 chain with I183S
notes: as for B18

- binding result [4]: no binding
B20: A3 M72S (designed binder)
chain: B17 chain with M176S
notes: as for B18

- Fold Change of KD vs parent [4]: 4.25 fold
- Kd [4]: 1.7 nM
- koff [4]: 0.00032 s⁻¹
- kon [4]: 185000 M⁻¹ s⁻¹
B21: A3 G40S (designed binder)
chain: B17 chain with G144S
notes: as for B18

- Fold Change of KD vs parent [4]: 0.75 fold
- Kd [4]: 0.3 nM
- koff [4]: 0.00015 s⁻¹
- kon [4]: 440000 M⁻¹ s⁻¹
B22: A3 K78S (designed binder)
chain: B17 chain with K182S
notes: Tested in the context of bispecific ECB15; not shown: C-terminal poly-histidine tag

- Fold Change of KD vs parent [4]: 9 fold
- Kd [4]: 3.6 nM
- koff [4]: 0.0012 s⁻¹
- kon [4]: 329000 M⁻¹ s⁻¹
B23: A3 V68S (designed binder)
chain: B17 chain with V172S
notes: as for B18

- Fold Change of KD vs parent [4]: 4.25 fold
- Kd [4]: 1.7 nM
- koff [4]: 0.000536 s⁻¹
- kon [4]: 321000 M⁻¹ s⁻¹
B24: A3 P81S (designed binder)
chain: B17 chain with P185S
notes: as for B18

- Fold Change of KD vs parent [4]: 6.75 fold
- Kd [4]: 2.7 nM
- koff [4]: 0.00127 s⁻¹
- kon [4]: 475000 M⁻¹ s⁻¹
B25: A3 L39S (designed binder)
chain: B17 chain with L143S
notes: as for B18

- Fold Change of KD vs parent [4]: 14.8 fold
- Kd [4]: 5.9 nM
- koff [4]: 0.00249 s⁻¹
- kon [4]: 425000 M⁻¹ s⁻¹
B26: A3 N70S (designed binder)
chain: B17 chain with N174S
notes: as for B18

- Fold Change of KD vs parent [4]: 74.5 fold
- Kd [4]: 29.8 nM
- koff [4]: 0.0086 s⁻¹
- kon [4]: 289000 M⁻¹ s⁻¹
B27: A3 W32S (designed binder)
chain: B17 chain with W136S
notes: as for B18

- binding result [4]: no binding
B28: A3 R34S (designed binder)
chain: B17 chain with R138S
notes: as for B18

- Fold Change of KD vs parent [4]: 1790 fold
- Kd [4]: 717 nM
- koff [4]: 0.0323 s⁻¹
- kon [4]: 45100 M⁻¹ s⁻¹
B29: A3 F38S (designed binder)
chain: B17 chain with F142S
notes: as for B18
